In the nanobody polyreactivity screen of Harvey et al. (2022):

Test: yeast display, Sf9 membrane polyspecificity reagent, FACS + sequencing; frameworks hold sequencing errors
In short: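 In a synthetic yeast display library (Saccharomyces cerevisiae BJ5465), nanobody expression was induced with galactose for 36–48 hours. FACS gates were set low and high (top ~1%) using anti-HA fluorescence for expression and streptavidin fluorescence for binding of the Sf9 membrane reagent. Each polyreactivity label is drawn from the gate of origin.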

Sequence: QVQLVESGGGLVQSGGSLRLSCAASGRIFYYNAMGWYRQAPGKERELVAAITSSSGSSTYYADSVKGRFTISRDNAKNTVYLQMNSLKPEDTAVYYCAADATFIIRYLSRSDYWGQGTQVTVSS
- polyreactivity (PSR sort gate): low polyreactivity

Sequence: QVQLVESGGGLVQSGGSLRLSCAASGRIIKSYAMGRYRQAPGKERELVAAISRSGGRTYYADSVKGRFSISRDNAKNTVYLQMISLKPEDTAVYYCAATTFVAPSWGQGTQVTVSS
- polyreactivity (PSR sort gate): low polyreactivity

Sequence: QVQLVESGGGLVQSGGSLRLSCAASGRTFGYYDMGWYRQAPGKERELVASITRRGGSTYYADSVKGRFTISRDNAKNTVYLQMNSLKPEDTAGYYCAARYKARYEPARYDYWGQGTQVTVSS
- polyreactivity (PSR sort gate): high polyreactivity

Sequence: QVQLVESGGGLVQSGGSLRLSCAASGRTFSYYAMGWYRQAPGKERELVAAISSGGSTNYADSVKGRFTISRDNAKNTVYLQMNSLKPEDTEVYYCATSSIWGSGRVRWVTYYYWGQGTQVTVSS
- polyreactivity (PSR sort gate): low polyreactivity

Sequence: QVQLVESGGGLVQSGGSLRLSCAASGRTFYDNVMGWYRQAPGKERELVAAISSGGSTNYADSVKGRFTISRDNAKNTVYLQMNSLKPEDTAFYYCATIGGGGWAYEYWGQGTQVTVSS
- polyreactivity (PSR sort gate): low polyreactivity

Sequence: QVQLVESGGGLVQSGGSLRLSCAASGRTFYGNAMGWYRQAPGKERELVAAITSSGGSTYYADSVKGRFTISRDNAKNTVYLQMNSLKPEDNAVYYCAAYTYLEDFESWGQGTQVTVSS
- polyreactivity (PSR sort gate): high polyreactivity

Sequence: QVQLVESGGGLVQSGGSLRLSCAASGRTLGYNAMGWYRQAPGKERELVASINSGVSTNYADSVKGRFTISRDNAKNTVYLQMNSLKPEDTAVYYCAAEKYGRGDGREGWEYDYWGQGTQVTVSS
- polyreactivity (PSR sort gate): low polyreactivity

Sequence: QVQLVESGGGLVQSGGSLRLSCAASGSIFDGYAMGWYRQAPGKERELVAAISKGGTRTYYADSVKGRFTISRDNAKNTVYLQMNSLKPEDTAVYYGNAYFRREPDDGDYDYWGQGTQVTVSS
- polyreactivity (PSR sort gate): high polyreactivity

Sequence: QVQLVESGGGLVQSGGSLRLSCAASGSIFTPYSMGWYRQAPGKERELVAGISYRGGTTYYADSVKGRFTISRDNAKNTVYLQMNSLKPEDYAVYYCAAAASSPGGWFYYWGQGTQVTVSS
- polyreactivity (PSR sort gate): high polyreactivity

Sequence: QVQLVESGGGLVQSGGSLRLSCAASGSTFSINAMGWYRQAPGKERELVAAITWRGVRTYYADSVKGRFTITRDNAKNTVYFQMNSLKPEDTAVYYCAADVVVAGHPGFDYWGQGTQVTVSS
- polyreactivity (PSR sort gate): high polyreactivity

Sequence: QVQLVESGGGLVQSGGSLRLSCAASGYIFGVNAMGWYRQAPGKERELVAAIDSGSRTYYADSVKGRFTISRDNAKNTVYLQMNSLIPEDTAVYYCATNFYVSYGGGYYTIWYDYWGQGTQVTVSS
- polyreactivity (PSR sort gate): low polyreactivity

Sequence: QVQLVESGGGLVQSGGSLRLSCAASGYIFRFNAMGWYRQAPGKEREMVAVITSGARTYYADSVKGRFTISRDNAKNTVYLQMNSLKPEDTAVYYCNAGARRYLYDYWGHGTQVTVSS
- polyreactivity (PSR sort gate): low polyreactivity

Sequence: QVQLVESGGGLVQSGGSLRLSSAAYGNTFFPYTIGRYRQAPGKERELVAAISWNGGTTYYADSVKGRFTISRDNAKNTVYLQMISLKPEDSAVYYCAAPRASGYYWGQGTQVTVSS
- polyreactivity (PSR sort gate): high polyreactivity

Sequence: QVQLVESGGGLVQSGGTLRLSWAASGFSFAGNAMGWYRLAPGKERELVAVISKRGGPTYYADSVKGRFTFSRDNAKNTVDLQMNSLKPEDTAVYYCAADSGGPGYAMDYWGQGTEVTVSS
- polyreactivity (PSR sort gate): high polyreactivity

Sequence: QVQLVESGGGLVQSVGSLRLSCAASGRSFWINTMGWYRQAPGKERELLAAITSGGSTKYADSVKGRFTISRDNAKNTVYFQMNSLKPEDCAVYYCARRFRPNDVWPSHRGYGYWGQGTQVSVSS
- polyreactivity (PSR sort gate): low polyreactivity

Sequence: QVQLVESGGGLVQTGGSLRLSCAASGSIYGEYAMGWYRQSPGKEREFVADITWSDGSTYYADSVKGRFTISRDNAKNTVYLQMNSLKPEDTAVYYCAADSVLDRQVLYLWPWYLGDYWGQGTQVTVSS
- polyreactivity (PSR sort gate): low polyreactivity

Sequence: QVQLVESGGGLVQTGGSLRLSCAASGSTFYYYAMGWYRQAPGKERELVAGISWGGGSTYYADSVKGRFTISRDNAKNTVYLQMNSLKPEDTAVYYCNALNPNSYDYWGQGTLVTVSS
- polyreactivity (PSR sort gate): low polyreactivity

Sequence: QVQLVESGGGLVQVGGSLRLSCAASGFTFYDYAMGWYRQAPGKERELVAAISRGGSTYYADSVKGRFTISRDNAKNTVYLQINSLIPEDTAVYYCNARPTRIYHGMGYWGQGTQVTVSS
- polyreactivity (PSR sort gate): low polyreactivity

Sequence: QVQLVESGGGLVQVGGSLRLSCAASGRTFWWYAMGWYRQAPGKERELVAAISRGSTNYADSVKGRFTISRDNAKNTVYLQMNSLKPEDTAVYYCNAVSLYQSHDYDYWGQGTQVTVSS
- polyreactivity (PSR sort gate): low polyreactivity

Sequence: QVQLVESGGGLVRAGGSLRLSCAASGFIFTSYVMGWYRQAPGKERELVAAITSGNSTYYADSVKGRFTISRDNAKNTVYLQMNSLKPEDTAVYYCTADSYHTYYYWYDYWGLGTQVTVSS
- polyreactivity (PSR sort gate): low polyreactivity

Sequence: QVQLVESGGGLVRAGGSLRLSCAASGRIFHGNAMGWYRQAPGKERELVAAITWGGTRTYYADSVKGRFTISRDNAKNTVYLQMNSLKPEDTAVYYCAKAGTGFYNSWWEDYWGQGTQVTVSS
- polyreactivity (PSR sort gate): low polyreactivity

Sequence: QVQLVESGGGRVQAGGSLRLSCAASGSIFTTYTMGWDRQAPGKESEWVAAITSSSGSTYYADSVKGRFTISRDNAKNTVYLQMNSLKPEDTAVYYCAARGYFDFSRYDSWGHGTQVTVSS
- polyreactivity (PSR sort gate): low polyreactivity

Sequence: QVQLVESGGGRVQAGGTHRLRSAASGFTFRQYAMGWYRPAPGKERELLAAISRSGSRTYYADSVKRRFTISRDNAKHTVYLQMNCLKPEDTAVYYCYAVFSTFTGEYYWGHGTQVTVSS
- polyreactivity (PSR sort gate): high polyreactivity

Sequence: QVQLVESGGGSVQAGGSLRLSCAASGFNFVYYAMGWYRQAPGKERELVAAITWSGGSTYADSVKGRFTISRDNAKNTVYLQMNSLKPEDTAVYYCAAEYDISSGYGFDFDYWGQGTQVTVSS
- polyreactivity (PSR sort gate): low polyreactivity

Sequence: QVQLVESGGGVIQAGGSLRLSCAASGRTFYRNTMGWYRQAPGKERELVASISRGGRTNYADSVKGRFTISRDNAKNTVYLQMNSLKREDTAVYYCAKQTSYGGIIRYYASCYGYWGQGTQVTVSS
- polyreactivity (PSR sort gate): high polyreactivity

Sequence: QVQLVESGGGVLQAGGSLRLSCAASGRIFYRYPMGWYRKAPGKVRELVAAISGSVGSTYADSVKGRLTISRDNAKNTVYLQMKSMKPEDTAVYYFDRETYRRYGAYDYWGQGTQVTVSS
- polyreactivity (PSR sort gate): low polyreactivity

Sequence: QVQLVESGGGVQAGCSLRLSCAASGRTFVPYGMGWYRQAPGKERELVAAISSIGDSTSYADSVKGRFTISRDNAKNTVYLQMNSLKPEDSAVYYCADVTWYDEYDSWGKGTQVTVSS
- polyreactivity (PSR sort gate): low polyreactivity

Sequence: QVQLVESGGGVVHAGGSLRLSCAASGLIFRYYAVGGYRPAPGKERELVARISTRGGSTYYADSVKGRFTISRDNAKNTVYLPMNSLKPEDTAVYYCAAVNGLYYHKYGYYWGQGTQVTVSS
- polyreactivity (PSR sort gate): high polyreactivity

Sequence: QVQLVESGGGVVQAGGRLRLSCAASGFILGYNDMGWYRPAPGKERELVAAISSSGGSTYYADSVKGRFTISRDNAKNTVYLQMNSLKPEDTAVYYCGLPYQTSYGEYDYWGQGTQVTVSS
- polyreactivity (PSR sort gate): low polyreactivity

Sequence: QVQLVESGGGVVQAGGRLRLSCSASGRTFPWYAMGWSRQEPGKEREVVAAITQSGGSTYYADSVKGRFTISRDNANNTVYLQMNSLKPEDTAGFYCAVASVNTVFYGQDHYYYDYGYWGQGTHVTVSS
- polyreactivity (PSR sort gate): low polyreactivity

Sequence: QVQLVESGGGVVQAGGSLRLICAATGSIFGYAMGWYRQAPGKERELVGAISFSGVSTYYADSVMGRFTISRDNAKNTVYLEMNSLKPEDTAVYYSNAYSDGDEDYWGQGTQGTVSS
- polyreactivity (PSR sort gate): low polyreactivity

Sequence: QVQLVESGGGVVQAGGSLRLRCAASGRTFGQNVMGWYRQAPGKERELVAAISWSGARTYYADSVKGRFTISRDNVKNTVYLQMNSLNPEDTAVYYCNAPPYAYYGMYYWGQGTQVTVSS
- polyreactivity (PSR sort gate): high polyreactivity
